Consider four molecules from patent US20120009179A1 (Kyowa Kirin, published 2012).

For experiment [1], the target named is T1, Aβ oligomers prepared from Amyloid β-protein, Human 1-42 peptide (human, UniProt P05067 672-713).
T1 construct: domain: Amyloid β-protein, Human 1-42 peptide; Non-covalent oligomer of synthetic Aβ1-42; Immobilized on a CM5 chip by amine coupling; also called amyloid β protein oligomer
The experiment in a line: SPR (Biacore T100), Aβ oligomers amine-coupled on CM5 chip, antibody injected, Bivalent Analyte model (kd1/ka1). How it is done:
(§1) All the following operations were performed using Biocore T100 (manufactured by GE Healthcare Bio-sciences). The Aβ oligomers obtained in (1) of Example 2 were immobilized to the CM5 sensor chip (GE Healthcare Bio-sciences) using the amine coupling method.
(§2) Onto the chip to which the Aβ oligomers were immobilized for measurement samples prepared to have 8 levels of density by diluting from 30 μg/mL by doubling dilution in a stepwise manner (HV0LV0, HV0LV2a, HV0LV4 and HV12LV4) was sequentially injected and measured in the order from the lower density based on the automatic program of the multi-kinetics.
(§3) Using the analysis software attached to the device, Biacore T100 Evaluation software (manufactured by Biacore Life Science), analysis was carried out with the Bivalent Analyte model to calculate the binding rate constant ka and the dissociation rate constant kd of each of the antibody against Aβ oligomers.
On the technique in general: SPR reads the build-up and loss of mass on a sensor chip optically.

In experiment [2] the target is T1, Aβ oligomers prepared from Amyloid …. The experiment in a line: SPR (Biacore T100), Aβ oligomers amine-coupled on CM5 chip, antibody injected, Bivalent Analyte model (ka1). How it is done: as §1, §2, §3
Experiment [3] deals with T2, Aβ monomers prepared from Biotin-beta-Amyloid, Human 1-40 (human, UniProt P05067 672-711, Biotin (position not stated; printed as "Biotin-beta-Amyloid, Human 1-40")).
T2 construct: domain: beta-Amyloid, Human 1-40; Captured on an SA sensor chip through biotin; also called amyloid β protein monomer
T2 sequence (P05067 672-711 limits assumed): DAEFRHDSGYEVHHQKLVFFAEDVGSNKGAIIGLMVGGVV
Briefly: SPR (Biacore T100), biotin-Aβ1-40 monomers captured on SA chip, antibody injected. The protocol: In order to analyze the binding activity of the respective anti-Aβ oligomer humanized antibodies (HV0LV0, HV0LV2a, HV0LV4 and HV12LV4) against Aβ monomers, the binding activity was measured in the same manner as in (1) of this Example. In addition, the binding activity of anti-Aβ antibody 6E10 (manufactured by CONVANCE) was measured as a control antibody.
The Aβ monomers obtained in (2) of Example (2) were immobilized to the SA sensor chip (manufactured by GE Healthcare Bio-sciences) by the biotin capturing method. Onto the chip to which the Aβ monomers were immobilized, samples for measurement, which were prepared to have 5 levels of density by diluting from 30 μg/mL by doubling dilution in a stepwise manner (6E10, HV0LV0, HV0LV2a, HV0LV4 and HV12LV4), were sequentially injected and measured in the order from the lower density based on the automatic program of the multi-kinetics mode.

For experiment [4], the target named is T1, Aβ oligomers prepared from Amyloid …. The experiment in a line: SPR (Biacore T100), Aβ oligomers amine-coupled on CM5 chip, antibody injected, Bivalent Analyte model (kd1). How it is done:
as §1, §2, §3

For orientation: kon means the second-order rate constant of association. Higher therefore signals fast association. A word on the koff: it is the rate constant with which the complex falls apart.

T1 sequence (P05067 672-713 limits assumed): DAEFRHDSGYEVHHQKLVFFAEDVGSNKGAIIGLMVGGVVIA

B1: anti-Aβ oligomer humanized antibody HV0LV2a (antibody, V domains shown)
VH: QVQLVQSGAEVKKPGASVKVSCKASGYTFTSYWMHWVRQAPGQGLEWMGEINPRNGGTNNNENFKRRVTITADTSTSTAYMELSSLRSEDTAVYYCARDGNYDPFAYWGQGTLVTVSS
VL: DIVMTQSPLSLPVTPGEPASISCRSSQSLVHSNGNTYLHWYLQKPGQSPKLLIYKVSNRFSGVPDRFSGSGSGTDFTLKISRVEAEDVGVYFCSQSTHVPPYTFGQGTKLEIK
notes: also called 6E4HV0 + LV2a
In the case of B1, in experiment [1], the Kd stood at 61 nM. Further, the kon in experiment [2] was determined as 6400 M⁻¹ s⁻¹. Moreover, the binding result in experiment [3] is reported as “no binding (tested: 30 µg/mL highest of 5 two-fold dilutions)”. For the same molecule, the koff in experiment [4] is 0.00039 s⁻¹.

B2: anti-Aβ oligomer humanized antibody HV12LV4 (antibody, V domains shown)
VH: QVQLVQSGAEVVKPGASVKLSCKASGYTFTSYWMHWVKLAPGQGFEWIGEINPRNGGTNNNENFKRKATLTVDKSTSTAYMELSSLRSEDTAVYYCTRDGNYDPFAYWGQGTLVTVSS
VL: DVVMTQSPLSLPVTLGEPASISCRSSQSLVHSNGNTYLHWYLQKPGQSPKLLIYKVSNRFSGVPDRFSGSGSGTDFTLKISRVEAEDVGVYFCSQSTHVPPYTFGQGTKLEIK
In turn, B2 gave a Kd in experiment [1] of 300 nM. The molecule further registered a kon in experiment [2] of 2700 M⁻¹ s⁻¹. Further, the binding result in experiment [3] was “no binding (tested: 30 µg/mL highest of 5 two-fold dilutions)”. In experiment [4], this molecule registered a koff of 0.00081 s⁻¹.

B3: anti-Aβ oligomer humanized antibody HV0LV0 (antibody, V domains shown)
VH: QVQLVQSGAEVKKPGASVKVSCKASGYTFTSYWMHWVRQAPGQGLEWMGEINPRNGGTNNNENFKRRVTITADTSTSTAYMELSSLRSEDTAVYYCARDGNYDPFAYWGQGTLVTVSS
VL: DIVMTQSPLSLPVTPGEPASISCRSSQSLVHSNGNTYLHWYLQKPGQSPQLLIYKVSNRFSGVPDRFSGSGSGTDFTLKISRVEAEDVGVYYCSQSTHVPPYTFGQGTKLEIK
notes: Whole humanized antibody expressed from vector pKANTEX93 (WO 97/10354) with human constant regions; Produced in FUT8 knockout CHO/DG44 cells (no core fucose); also called 6E4HV0 + 6E4LV0
In experiment [1], B3 registered a Kd of 40 nM. This molecule also yielded a kon in experiment [2] of 17000 M⁻¹ s⁻¹. Besides, the binding result in experiment [3] is listed as “no binding (tested: 30 µg/mL highest of 5 two-fold dilutions)”. For the same molecule, the koff in experiment [4] came to 0.00069 s⁻¹.

B4: anti-Aβ oligomer humanized antibody HV0LV4 (antibody, V domains shown)
VH: QVQLVQSGAEVKKPGASVKVSCKASGYTFTSYWMHWVRQAPGQGLEWMGEINPRNGGTNNNENFKRRVTITADTSTSTAYMELSSLRSEDTAVYYCARDGNYDPFAYWGQGTLVTVSS
VL: DVVMTQSPLSLPVTLGEPASISCRSSQSLVHSNGNTYLHWYLQKPGQSPKLLIYKVSNRFSGVPDRFSGSGSGTDFTLKISRVEAEDVGVYFCSQSTHVPPYTFGQGTKLEIK
notes: also called 6E4HV0 + LV4
B4 gave a Kd in experiment [1] of 71 nM. Also, the kon in experiment [2] worked out at 7000 M⁻¹ s⁻¹. Also, the binding result in experiment [3] is “no binding (tested: 30 µg/mL highest of 5 two-fold dilutions)”. Besides, the dissociation rate constant (koff) in experiment [4] was found to be 0.0005 s⁻¹.
